The text below walks through data of patent publication US20030036642.

This series has as its target PDGF-AB (A-chain/B-chain heterodimer) (Homo sapiens) (UniProt P04085+P01127). Briefly: filter.

PDGF-AB (A-chain/B-chain heterodimer) (Homo sapiens), sequence (P01127 82-190, chain 2 of 2, other chains not shown): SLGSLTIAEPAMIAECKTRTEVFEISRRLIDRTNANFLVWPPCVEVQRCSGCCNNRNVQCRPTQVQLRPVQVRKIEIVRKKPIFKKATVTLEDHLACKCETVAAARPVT

For the sequence “ATCCGCCTGATTAGCGATACTNNNNNNNNNNNNNNNNNNNNNNNNNNNNNNNNNNNNNNNNACTTGAGCAAAATCACCTGCAGGGG [round 12 affinity-enriched ssDNA pool]”, where the note is “after 12 rounds, apparent Kd”, the Kd was found to be 0.05 nM. Sequence “ATCCGCCTGATTAGCGATACTNNNNNNNNNNNNNNNNNNNNNNNNNNNNNNNNNNNNNNNNACTTGAGCAAAATCACCTGCAGGGG [starting random ssDNA pool]” had a binding signal (fold lower affinity than round 12 pool) of 700. For “GGGAGACAAGAAUAACGCUCAANNNNNNNNNNNNNNNNNNNNNNNNNNNNNNNNNNNNNNNNNNNNNNNNNNUUCGACAGGAGGCUCACAACAGGC [starting random 2'-F-pyrimidine RNA pool]”, the Kd (2'-F all C,U, random 2'-F-pyrimidine RNA, method inferred) was 35 nM.
